We go through eleven molecules from patent publication US20210221908A1 (LAMKAP BIO BETA, published 2021).

Positions count from the first letter of the chain named.

The labels stand for the following.
B1: K2AC27 CEAxCD47 bispecific antibody (bispecific antibody, human IgG1, kappa, lambda)
heavy: not shown
light 1: not shown
light 2: QSVLTQPPSVSGAPGQRVTISCTGSSSNIGYADKVHWYQQLPGTAPKLLIYNNSDRPSGVPDRFSGSKSGTSASLAITGLQAEDEADYYCQSYDGYNMLTAVFGGGTKLTVLGQPKAAPSVTLFPPSSEELQANKATLVCLISDFYPGAVTVAWKADSSPVKAGVETTTPSKQSNNKYAASSYLSLTPEQWKSHRSYSCQVTHEGSTVEKTVAPTECS
notes: kappa-lambda body, human IgG1, common heavy chain; CEA arm light chain 2C11 (AC27)
B2: K2AC28 CEAxCD47 bispecific antibody (bispecific antibody, human IgG1, kappa, lambda)
heavy: not shown
light 1: not shown
light 2: NFMLTQPHSVSESPGKTVTISCTRSSGSINDITVHWYQQRPGSSPTTVIYGYNARPSGVPDRFSGSIDSSSNSASLTISGLKTEDEADYYCQSWDGHGSAYVFGGGTKLTVLGQPKAAPSVTLFPPSSEELQANKATLVCLISDFYPGAVTVAWKADSSPVKAGVETTTPSKQSNNKYAASSYLSLTPEQWKSHRSYSCQVTHEGSTVEKTVAPTECS
notes: kappa-lambda body, human IgG1, common heavy chain; CEA arm light chain C11 (AC28)
B3: K2AC10 CEAxCD47 bispecific antibody (bispecific antibody, human IgG1, kappa, lambda)
heavy: not shown
light 1: not shown
light 2: QSVLTQPPSVSGAPGQRVTISCTGSSSNIYANSNVHWYQQLPGTAPKLLIYSGSNRPSGVPDRFSGSKSGTSASLAITGLQAEDEADYYCQSYDPAHNLLTAVFGGGTKLTVLGQPKAAPSVTLFPPSSEELQANKATLVCLISDFYPGAVTVAWKADSSPVKAGVETTTPSKQSNNKYAASSYLSLTPEQWKSHRSYSCQVTHEGSTVEKTVAPTECS
notes: kappa-lambda body, human IgG1, common heavy chain; CEA arm light chain 1D5 (AC10)
B4: K2AC13 CEAxCD47 bispecific antibody (bispecific antibody, human IgG1, kappa, lambda)
heavy: not shown
light 1: not shown
light 2: QSALTQPASVSGSPGQSITISCTGTSSNVRYAAGVSWYQQHPGKAPKLMIYEVSNRPSGVSNRFSGSKSGNTASLTISGLQAEDEADYYCSSWDFEHGPAAKVFGGGTKLTVLGQPKAAPSVTLFPPSSEELQANKATLVCLISDFYPGAVTVAWKADSSPVKAGVETTTPSKQSNNKYAASSYLSLTPEQWKSHRSYSCQVTHEGSTVEKTVAPTECS
notes: kappa-lambda body, human IgG1, common heavy chain; CEA arm light chain 2B8 (AC13)
B5: K2AC22 CEAxCD47 bispecific antibody (bispecific antibody, human IgG1, kappa, lambda)
heavy: not shown
light 1: not shown
light 2: QSVLTQPPSVSAAPGQKVTISCSGSSSNIANGIVSWYQQLPGTAPKLLIYFDNLRPSGIPDRFSGSKSGTSATLGITGLQTGDEADYYCGTWDFSYGIVFGGGTKLTVLGQPKAAPSVTLFPPSSEELQANKATLVCLISDFYPGAVTVAWKADSSPVKAGVETTTPSKQSNNKYAASSYLSLTPEQWKSHRSYSCQVTHEGSTVEKTVAPTECS
notes: kappa-lambda body, human IgG1, common heavy chain; CEA arm light chain 1G6 (AC22)
B6: K2AC25 CEAxCD47 bispecific antibody (bispecific antibody, human IgG1, kappa, lambda)
heavy: not shown
light 1: not shown
light 2: QSVLTQPPSVSAAPGQKVTISCSGSSSNIGITPVSWYQQLPGTAPKLLIYSNNFRPSGIPDRFSGSKSGTSATLGITGLQTGDEADYYCGTWDRTGHEIRPVFGGGTKLTVLGQPKAAPSVTLFPPSSEELQANKATLVCLISDFYPGAVTVAWKADSSPVKAGVETTTPSKQSNNKYAASSYLSLTPEQWKSHRSYSCQVTHEGSTVEKTVAPTECS
notes: kappa-lambda body, human IgG1, common heavy chain; CEA arm light chain 2F4 (AC25)
B7: K2AC26 CEAxCD47 bispecific antibody (bispecific antibody, human IgG1, kappa, lambda)
heavy: not shown
light 1: not shown
light 2: QSALTQPASVSGSPGQSITISCTGTSSDVKYANAVSWYQQHPGKAPKLMIYSNSIRPSGVSNRFSGSKSGNTASLTISGLQAEDEADYYCSSYDPRGNLLIRVFGGGTKLTVLGQPKAAPSVTLFPPSSEELQANKATLVCLISDFYPGAVTVAWKADSSPVKAGVETTTPSKQSNNKYAASSYLSLTPEQWKSHRSYSCQVTHEGSTVEKTVAPTECS
notes: kappa-lambda body, human IgG1, common heavy chain; CEA arm light chain 2F7 (AC26)
B8: K2AC29 CEAxCD47 bispecific antibody (bispecific antibody, human IgG1, kappa, lambda)
heavy: not shown
light 1: not shown
light 2: QSALTQPASVSGSPGQSITISCTGTSSDVEFTNGVSWYQQHPGKAPKLMIYGFSSRPSGVSNRFSGSKSGNTASLTISGLQAEDEADYYCSSYDPPWHLLARVFGGGTKLTVLGQPKAAPSVTLFPPSSEELQANKATLVCLISDFYPGAVTVAWKADSSPVKAGVETTTPSKQSNNKYAASSYLSLTPEQWKSHRSYSCQVTHEGSTVEKTVAPTECS
notes: kappa-lambda body, human IgG1, common heavy chain; CEA arm light chain 2B5 (AC29)
B9: K2AC18 CEAxCD47 bispecific antibody (bispecific antibody, human IgG1, kappa, lambda)
heavy: not shown
light 1: not shown
light 2: SYVLTQPPSVSVAPGKTARITCGGNGIGDASVHWYQQKPGQAPVLVIYSTTTRPSGIPERFSGSNSGNTATLTISRVEAGDEADYYCQVWDGFGPRHRAVFGGGTKLTVLGQPKAAPSVTLFPPSSEELQANKATLVCLISDFYPGAVTVAWKADSSPVKAGVETTTPSKQSNNKYAASSYLSLTPEQWKSHRSYSCQVTHEGSTVEKTVAPTECS
notes: kappa-lambda body, human IgG1, common heavy chain; CEA arm light chain 1A2 (AC18)
B10: K2AC5 CEAxCD47 bispecific antibody (bispecific antibody, human IgG1, kappa, lambda)
heavy: not shown
light 1: not shown
light 2: B5 light 2 with A30G, N31Y, I33L, F51A, D52G, S95N, I98V
notes: kappa-lambda body, human IgG1, common heavy chain; CD47 arm light chain KA3 (K2), CEA arm light chain 1D9 (AC5)
B11: K2AC39 CD47xCEA bispecific antibody (bispecific antibody, human IgG1, kappa, lambda)
heavy: not shown
light 1: not shown
light 2: QSVLTQPPSVSAAPGQKVTISCSGSSSEITASGVSWYQQLPGTAPKLLIYDNNKRPSGIPDRFSGSKSGTSATLGITGLQTGDEADYYCGTWDFPPSRFVFGGGTKLTVLGQPKAAPSVTLFPPSSEELQANKATLVCLISDFYPGAVTVAWKADSSPVKAGVETTTPSKQSNNKYAASSYLSLTPEQWKSHRSYSCQVTHEGSTVEKTVAPTECS
notes: K2 = KA3 CD47 light chain, AC39 = 1B2 CEA light chain

For the first assay, the target named is T1, human CEACAM5 on MKN-45 cells (human, UniProt P06731 35-685).
T1 construct: endogenous CEA of MKN-45 gastric adenocarcinoma cells, which also carry CD47 and CEACAM6; UniProtKB P06731; also called CD66e
T1 sequence: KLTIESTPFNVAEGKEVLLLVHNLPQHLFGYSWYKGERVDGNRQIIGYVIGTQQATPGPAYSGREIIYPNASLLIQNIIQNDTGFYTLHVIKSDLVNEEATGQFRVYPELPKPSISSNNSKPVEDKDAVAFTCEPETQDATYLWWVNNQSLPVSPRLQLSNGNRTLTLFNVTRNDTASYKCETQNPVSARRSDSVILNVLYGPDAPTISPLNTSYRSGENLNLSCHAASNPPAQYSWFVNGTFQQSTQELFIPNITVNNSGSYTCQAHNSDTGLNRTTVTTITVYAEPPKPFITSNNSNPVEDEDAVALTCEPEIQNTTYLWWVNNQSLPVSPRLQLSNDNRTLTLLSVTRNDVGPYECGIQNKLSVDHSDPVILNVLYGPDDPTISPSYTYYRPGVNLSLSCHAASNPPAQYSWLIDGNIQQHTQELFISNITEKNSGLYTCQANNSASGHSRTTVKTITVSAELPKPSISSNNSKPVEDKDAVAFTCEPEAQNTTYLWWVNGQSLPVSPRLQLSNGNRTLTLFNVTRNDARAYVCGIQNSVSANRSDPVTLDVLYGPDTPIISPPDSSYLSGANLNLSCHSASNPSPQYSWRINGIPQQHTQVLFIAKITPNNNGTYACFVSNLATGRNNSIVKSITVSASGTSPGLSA
As to the kind of experiment: flow cytometry on MKN45 CEA+ cancer cells (also carry CD47). The protocol:
(§1) Cells are harvested, counted, checked for viability and resuspended at 3×10⁶ cells/ml in FACS buffer (PBS 2% BSA, 0.1% NaN3). 100 μl of the cell suspension are distributed in V-bottom 96-well plates (3×10⁵ cells/well). The supernatant is removed by centrifugation 3 minutes at 4° C., 1300 rpm. Increasing concentrations of the antibody according to the invention are then added into the wells and incubated for 15 minutes at 4° C. Cells are washed twice with cold FACS buffer and re-incubated for further 15 minutes at 4° C. with the PE (R-phycoerythrin)-conjugated mouse anti-human IgG Fc secondary antibody (SouthernBiotech, pre-diluted 1:100 in FACS buffer). Cells are washed twice with cold FACS buffer and resuspended in 300 μl FACS buffer with 1:15000-diluted SytoxBlue (Life Technologies). Fluorescence is measured using a Cytoflex […]. Binding curves and EC50 values are obtained and calculated using GraphPad Prism? software. In the same manner binding of MAB CEA or MAB CEA1 to MKN-45 cells can be tested.
Turning to B1, the EC50 (in general, the concentration giving half of the maximal effect) is 12.5 nM.
Still for that read-out and setting: the same measure for B2: 52.5 nM.
Still for that read-out and setting: to B3 belongs 1.15 nM; to B4, 190 nM.
As for B5, the concentration giving a half-maximal response (EC50) was determined as 16.5 nM.
Consider B6, for which the EC50 stood at 13 nM.
The same measure, in the same setting: the same measure for B7: 12.7 nM; for B8: 14.5 nM.
Same read-out and setting: to B9 belongs 132 nM.

Another assay has as its target T1, human CEACAM5 on MKN-45 cells. As to the kind of experiment: flow cytometry on MKN45 CEA+ cancer cells (also carry CD47); MKN45 CEA+ cancer cells. The protocol: as §1
(In general: In flow cytometry, cells or beads pass a laser one at a time.)
As to B10, a half-maximal response (EC50) required 11.3 nM.

A further assay shares this target. Description: flow cytometry (FACS) on MKN-45 cells, which express CD47, CEACAM5 and CEACAM6.
For the molecule B5, the EC50 (read off the curve) (usually the midpoint of the concentration-response curve) was roughly 1 µg/mL.

In a further assay the target is T2, human CD47 on MKN45 cells (human, UniProt Q08722 19-323).
T2 construct: whole, on cells; also called IAP
Description: inhibition of SIRPα-mouseFc binding to CD47 on MKN45 cells, imaging (CX5); column 'SIRPα inhibition potency'. From the text: Experimental set-up for the measurement of the SIRPα inhibition potency data shown for bispecific antibodies of this invention (results see table 2):
The detection of bound SIRPα cell-based assay monitoring the interaction of soluble SIRPα with human CD47 expressed at the surface of MKN45 is used for the detection of the blocking activity. Dose-response experiments with bispecific antibodies according to the invention allow determination of an IC50 value.
MKN45 cancer cells, expressing both CD47 and CEACAM5, are stained with CFSE violet to allow the imaging system (CX5) to detect the cells. Briefly, 3,000 stained MKN45 cells per well are seeded in a 384 optical well plate (Costar) and incubated for 50 minutes with increased concentrations of bispecific antibodies of the invention (1.9 pM to 333 nM, in quadruplicates). Then, a fixe concentration of SIRPα—mouseFc premixed with anti-mouse IgG-Fc AF647 coupled antibody (Jackson Immunoresearch diluted 1:2000) is added at 50 ng/mL final. After an incubation of 3H30 plates are acquired with the imaging system (CX5, Thermofisher) and fluorescence signals emitted by the detected bound SIRPα is recorded by the software dedicated to the imaging system. Fluorescence signals are plotted according to the dose range tested and IC50 are calculated by the software (Prism, Graphpad).
Take B1: the IC50 (commonly the concentration needed to halve the response being measured) turned out to be 0.86 nM.
The same measure, in the same setting: to B2 belongs 0.95 nM; to B3, 0.22 nM; to B4, 4 nM.
Same read-out and setting: to B10 belongs 0.4 nM.
In turn, B5 came in with an IC50 of 0.37 nM.
On the same count and under the same terms, to B6 belongs 0.22 nM; to B7, 0.32 nM; to B8, 0.72 nM.
Same read-out and setting: the same measure for B9: 7 nM.

The target in the next assay is T3, human CEACAM6 on MKN-45 cells (human, UniProt P40199 35-320).
T3 construct: whole, on cells
T3 sequence (looked up): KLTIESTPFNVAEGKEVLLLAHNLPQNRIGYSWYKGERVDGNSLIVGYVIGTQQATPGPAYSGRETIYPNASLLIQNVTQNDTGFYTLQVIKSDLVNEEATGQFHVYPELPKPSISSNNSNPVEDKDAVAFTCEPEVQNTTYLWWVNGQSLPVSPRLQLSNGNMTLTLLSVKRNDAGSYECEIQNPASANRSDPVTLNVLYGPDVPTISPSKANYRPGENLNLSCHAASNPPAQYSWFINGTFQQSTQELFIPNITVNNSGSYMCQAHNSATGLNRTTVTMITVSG
As to the kind of experiment: legend of FIG. 21A, FACS on MKN-45 cells. The protocol:
(§2) Binding to target cells (MKN-45) expressing CD47, CEACAM5 and CEACAM6 was assessed by FACS.
as §1
For the molecule B11, the binding result is on record as “binds”.

The target in another assay is T4, commercial shed CEA (BioRad) (human, UniProt P06731 35-685, limits assumed).
T4 sequence: T1 sequence
Description: cell-based or functional assay.
With B10, the “shift of EC50 of the phagocytosis index curve of MKN-45 cells by 200 ng/mL shed CEA (FIG. 20B)” value is less than 4 fold.
The same measure, in the same setting: the same measure for B5: less than 4 fold.

The target of a further assay is T3, human CEACAM6 on MKN-45 cells. As to the kind of experiment: statement in the legend of FIG. 21A (FACS on MKN-45 cells). The protocol:
as §2, §1
In the case of B5, the binding result is listed as “no binding”.

In a further assay the target is T1, human CEACAM5 on MKN-45 cells. As to the kind of experiment: flow cytometry (FACS) on MKN-45 cells, which express CD47, CEACAM5 and CEACAM6; the legend says K2AC39 binds CEACAM5 and CEACAM6, and the curve does not separate the two.
Take B11: the “EC50 (read off the curve)” value is roughly 3 µg/mL.

The next assay has the same target. As to the kind of experiment: flow cytometry (FACS) on MKN-45 cells, without shed CEA.
B10: the “EC50 (read off the curve)” value is roughly 0.3 µg/mL.
